Experimental data from article PMC10720262 (Cell Reports, 2023).
Residue numbers refer to the chain shown, from its start.

B1: CL-512459 (antibody, V domains shown)
VH: QVQLVESGGGVVQPGRSLRLSCTASGFTFSDYGMHWVRQAPGKGLEWVSIIWYDGSKKYYADSVQGRFTISRDNSKNTLYLQMSSLRAEDTAVYYCARAYGSGSYYTFNYWGQGTLVTVSS
VL: EIVMTQSPATLSVSPGERATLSCRASQSVNSNLAWYQQKPGQAPRLLIYGASTRATGFPARFIGSGSGTDFTLTINSLQSEDFAVYYCQQYNHWWTFGQGTKVEIK
B2: CL-513041 (antibody, V domains shown)
VH: QEHLVESGGGVVQPGRSLRLSCAASGFTFSNSGMHWVRQAPGKGLEWVAVIWYDGSNKFYADSVRGRFTISRDNSNNTLYLQMNSLRAEDTALYYCARDRLFSGSWNWFDPWGQGTLVTVSS
VL: EIVLTQSPATLSLSPGERATLSCRASQSVSTYLAWYQQKPGQAPRLLIYDASNRATGIPARFSGSGSGTDFTLTISSLEPEDFAVYYCQQRSNWFTFGGGTKVEIK
B3: CL-511862 (antibody, V domains shown)
VH: QVQLVESGGGVVQPGKSLRLSCAASGFSFSSSGMHWVRQAPDKGLEWVAIIWYDGSHKFYADSVKGRFTISRDNSDNTLFLQMDSLRAEDTAVYYCVRAYPTSYNGNYDKYGMDVWGQGTTVTVSS
VL: DIQMTQSPSTLSASVGDRVTIACRASQSISTWLAWYQQKPGKAPKLLIYKASTLESGVPSRFSGSGSGTEFTLTISSLQPDDFATYYCQQFTFYWTFGQGTKVEIK
B4: CL-512264 (antibody, V domains shown)
VH: QVQLVESGGGVVQPGRSLRLSCVTSGFTFSNFGMHWVRQAPGKGLEWVAIIWYDGSNKFYADSLKGRFTISRDNSKNTLFLQMNSLRAEDTAVYYCARAHTVTTANDKYGTDVWGQGTTVTVSS
VL: B3 VL with A22T, T31S, Q38H, T53S, Y87F, F91Y, T92N, F93S
B5: CL-512761 (antibody, V domains shown)
VH: QVQLVESGGGVVQPGTSLRLSCAASGFTFSNYGMHWVRQAPGKGLEWVSITWYDESNKFYADSVKGRFTISRDNSKNTLYLQMNSLRAEDTAVYYCARAYDTLTGYRAQKYGMDVWGQGTTVTVSS
VL: B3 VL with A22T, S28R, Y49N, K50E, T53R, F91Y, T92N, F93S
B6: CL-512011 (antibody, V domains shown)
VH: B4 VH with N31S, I50L, N57H, K65T, F80Y, A88V, T101A, T121N, S124P
VL: B3 VL with A22T, T31S, Q38H, K42N, T53N, Y87F, F91Y, T92N, F93S, I105V
B7: CL-512870 (antibody, V domains shown)
VH: QVQLVESGGGVVQPGRSLRLSCEASGFTFSHYGMHWVRQAPGRGLEWVAIIWYDGSNTYYRDSVKGRFTISRDNSKDTLFLQMNSLRPDDTAVYYCARALYYDSGSLFDFWGQGTLVTVSS
VL: B3 VL with A22T, T31S, T53S, S56T, S67F, T74S, Q89L, F91Y, T92N, F93I
B8: CL-512275 (antibody, V domains shown)
VH: B4 VH with R16G, L18F, V23E, I50L, N57H, K65T, F80Y, A88V, T101S, S124P
VL: B3 VL with A22T, T31S, Q38H, K42R, T53S, V58I, Y87F, F91Y, T92N, F93S
B9: CL-512564 (antibody, V domains shown)
VH: QVQLVESGGGVVQPGRSLRLSCAASGFTFSNSGMHWVRQAPGKGLEWVAIIWYDGSHKFYADSVKGRFTISRDNSKNTLYLQMNSLRIEDTAMYYCVRSYNWNYPVRGDYKYGMDVWGQGTTVTVSS
VL: B3 VL with A22T, T31S, Y36F, K45N, K50M, T53S, E55Q, T92N, F93T
B10: CL-513279 (antibody, V domains shown)
VH: QVQLVESGGGVVQPGRSLRLSCAASGFTFSNFGMHWVRQAPVKGLEWVALIWYDGSNKFYADSVQGRFTISRDNSKNILYLQMNSLRAEDTAVYYCAKVEARGVDYHSYGMDVWGQGTTVTVSS
VL: B3 VL with A22T, T31S, K45Q, T53S, F91Y, T92K, F93Y
B11: CL-512871 (antibody, V domains shown)
VH: QVLLVESGGGVVQPGRSLRLSCAASGFTFSNYGMHWVRQAPGKGLEWVALIRYDGINKFYADSVKGRFTISRDNSENTLYMQINSLRAEDTAMYYCAKAYNTSSDYYYGMDVWGQGTTVTVSS
VL: B3 VL with A22T, T53R, F83L, T92N, F93S, K106R
B12: CL-512319 (antibody, V domains shown)
VH: B4 VH with V23A, T24A, I50V, N57H, F80Y, S85N, T101P, A105D, N106Y, T111M
VL: B3 VL with A13S, A22T, T31I, Y36I, T53S, T92Y, F93S, Q99L
B13: CL-513274 (antibody, V domains shown)
VH: QVQLVESGGGVVQPGRSLRVSCAASGFTFSNYGMYWVRQAPGKGLEWVALIWHDGSNKFYEDSVKGRFTISRDNSKNTLYLQMNSLRAEDTAVYYCARAGYFQGSGSFLDYWGQGTLVTVSS
VL: B3 VL with A22T, T53S, Y87F, F91Y, T92S, F93S
B14: CL-513069 (antibody, V domains shown)
VH: QVQLVESGGGVVQPGKSLRLSCEASGFTFSNYGMHWVRQAPGKGLDWVAIIWHDGGNKFYADSVRGRFTISRDNSKNTLFLQMNSLRAEDSAVYYCARVFDFRDSCYTMDVWGQGTTVTVSS
VL: B3 VL with A22T, T31S, T53S, T72S, F91Y, F93R, K102R, K106Q
B15: CL-512206 (antibody, V domains shown)
VH: QVQLVESGGGVVQPGRSLRLSCAASGFTFSHYGMHWVRQAPGKGLEWVAVIWYDGNNKFYADSVKGRFTISRDNSNNTLYLQMNSLRAEDTAVYHCVRERTGATSRGFDFWGQGTLVTVSS
VL: QSVLTQPPSVSAAPGQKVTISCSGSDSNIEKYYVSWYQQLPGSAPKLLIYDNNKRPSGIPDRFSGSKSGTSATLGITGLQTGDEAVYYCGTWDSSLSTGVFGGGTKLTVL
B16: CL-512469 (antibody, V domains shown)
VH: QMQLVESGGGVVQPGRSLTLSCEASGFTFSNYGMHWVRQAPGKGLEWVAIIWFDGSHRFYADAVEGRFTISRDNSKNTLFLQMTSLRAEDAAVYYCARVGQFSSSSWGAFDIWGQGTVVTVSS
VL: EIVLTQSPGTLSLSPGESVTLSCRASQIISNTHLAWYQQKPGQAPSLLIYGASSRATGIPDRFSGSGSGTDFTLTISRLEPEDFAVYYCQQYGRLWTFGQGTKVEIK
B17: CL-512374 (antibody, V domains shown)
VH: QVQLVESGGGVVQPGRSLRLSCAASGFTFSSYGMHWVRQAPGKGLEWVAVIWYDGSNKYYADSVKGRFTISRDNSKNTLYLQMNSLRAEDTAVYYCARDGGGTTRSFDLWGRGTLVTVSS
VL: QSVLTQPPSVSGAPGQRVTISCTGSSSNIGAGYDVHWYQQLPGTAPKLLIYGNSNRPSGVPDRFSGSKSGTSASLAITGLQAEDEADYYCQSYDSSLSGSMFGGGTKLTVL
B18: CL-512508 (antibody, V domains shown)
VH: QVQLVESGGGVVQPGTSLRLSCGASGFTFSSYGMHWVRQAPGKGLEWVAIIWYDGNNKYYADSVKGRFTISRDNSKNTLYLQMNSLRAEDTAVYYCAKVGQFSTSSWGAFDIWGQGTMVTVSS
VL: EIVLTQSPGTLPLSPGERATLSCRASQSVSSSQLAWYQQKPGQAPRLLIYGASSRATAIPDRFSGSGSGTDFTLTISRLEPEDFAVYYCQQYSRLWTFGQGTKVEIK
B19: CL-511905 (antibody, V domains shown)
VH: QVQLVESGGGVVQPGRSLRLSCAASGFTFSGSGMHWVRQAPGRGLEWVAIIWYDGSHKYYVDSVQGRFIISRDNSKNTLYLEMNSLRVEDTAVYYCVRAYPSGSSNDKYGMDVWGQGTTVTVSS
VL: not shown
B20: CL-513094 (antibody, V domains shown)
VH: B19 VH with S85N
VL: not shown
B21: CL-512296 (antibody, V domains shown)
VH: QVQLVESGGGVVQPGRSLRLSCAASGFTFSNYGMHWVRQAPGKGLEWVAVIWYDGSKKFYADSVMGRFTISRDNSKNTLVLQMNSLGAEDTAVYYCARDRGYSGYVFDYWGQGTLVTVSS
VL: QSALTQPASVSGSPGQSIAISCTGTSSDVGGYNFVSWYRHHPGKAPKLMIYDVSNRPSGVSNRFSGSKSGNTASLTISGLQAEDEADYYCCSYAGSCSVFGGGTKLTVL
B22: CL-512191 (antibody, V domains shown)
VH: QVQLVESGGGVVQPGRSLRLSCAASGFTFSNYAMHWVRQAPGKGLEWVAVIWYDGSNKYYADSVKGRFTISRDDSKNTLYLQMNSLRAEDTAVYYCARDKGYRYGFNWFDPWGQGTLVTVSS
VL: QSVLTQPPSVSGAPGQRVTISCTGSSSNIGAGYDVHWYQKLPGTAPKLLIFSNSNRPSGVPDRFSGSKSGTSASLAITGLQAEDEADYYCQSYDSSLSGSRVFGGGTKLTVL
B23: CL-513083 (antibody, V domains shown)
VH: QVQLVESGGGVVQPGRSLRLSCAASGFTFSNYGMHWVRQAPGRGLEWVAIIWYDGSNKYYEDSVKGRFTISRDNSKNTLYLQMNSLRAEDTAVYYCARAQWLDQRHYHYTMDVWGQGTTVTVSS
VL: not shown
B24: CL-512023 (antibody, V domains shown)
VH: QVQLMESGGGVVQPGRSLRLSCEASGFTFSNSGMHWVRQAPGKGLEWVAIIWYDGSNRYYVDSVKGRFTISRDNSKNTLYLQMNSLRAEDTAVYYCARDGGNRYGYGWFDSWGQGTLVTVSS
VL: QSVLTQPPSVSGAPGQRVTISCTGSSSNIGAGYDVHWYQQLPGTAPKLLIYGNTNRPSGVPDRFSGSKSGTSASLAITGLQAEDEADYYCQSYDSSLGGSRRVFGGGTKLTVL

Target: recombinant full-length PfCSP (Plasmodium falciparum circumsporozoite protein, strain NF54) (Plasmodium falciparum NF54, UniProt P19597)
Sequence (P19597 20-375): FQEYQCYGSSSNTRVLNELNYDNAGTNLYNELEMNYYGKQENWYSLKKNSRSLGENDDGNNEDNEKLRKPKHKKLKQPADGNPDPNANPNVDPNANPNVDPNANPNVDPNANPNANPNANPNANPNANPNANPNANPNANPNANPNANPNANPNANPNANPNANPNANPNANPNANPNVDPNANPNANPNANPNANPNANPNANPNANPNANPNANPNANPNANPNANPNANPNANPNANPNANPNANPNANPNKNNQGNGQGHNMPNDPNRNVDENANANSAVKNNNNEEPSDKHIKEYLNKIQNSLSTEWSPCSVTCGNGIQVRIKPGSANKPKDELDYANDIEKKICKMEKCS

Binder	binding result
B1	binds
B2	binds
B3	binds
B4	binds
B5	binds
B6	binds
B7	binds
B8	binds
B9	binds
B10	binds
B11	binds
B12	binds
B13	binds
B14	binds
B15	binds
B16	binds
B17	binds
B18	binds
B19	binds
B20	binds
B21	binds
B22	binds
B23	binds
B24	binds
